{
  "source": "patent US20030134774A1",
  "about": "“Methods for inhibiting cardiac disorders” (priority 2001, published 2003)",
  "molecules": {"B1": {"name": "rPMT: recombinant Pasteurella multocida toxin, a Gαq agonist used as pharmacological probe (protein, UniProt P17452 1-1285, looked up)", "Dermonecrotic toxin": "MKTKHFFNSDFTVKGKSADEIFRRLCTDHPDKQLNNVKWKEVFINRFGQMMLDTPNPRKIVEKIINEGLEKQGLKNIDPETTYFNIFSSSDSSDGNVFHYNSLSESYRVTDACLMNIFVERYFDDWDLLNSLASNGIYSVGKEGAYYPDHDYGPEYNPVWGPNEQIYHSRVIADILYARSVWDEFKKYFMEYWQKYAQLYTEMLSDTFLAMAIQQYTRQTLTDEGFLMVCNTYYGNKEEVQITLLDIYGYPSTDIICIEQKGLPTPKVILYIPGGTQPFVEFLNTDDLKQWIAWHLKDNKHMVAFRKHFSLKQRQEGETFTGIDKALQYIAEESPEWPANKYILYNPTHLETENLFNIMMKRTEQRMLEDSDVQIRSNSEATRDYALSLLETFISQLSAIDMLVPAVGIPINFALSATALGLSSDIVVNGDSYEKRKYGIGSLVQSALFTGINLIPVISETAEILSSFSRTEEDIPAFFTEEQALAQRFEIVEEELHSISPDDPPREITDENLHKIRLVRLNNENQPLVVLRRLGGNKFIRIEPITFQEIKGSLVSEVINPVTNKTYYVSNAKLLGGSPYSPFRIGLEGVWTPEVLKARASVIGKPIGESYKRILAKLQRIHNSNILDERQGLMHELMELIDLYEESQPSSERLNAFRELRTQLEKALYLPEMEALKKQILQIPNKGSGAARFLLRTAMNEMAGKTSESTADLIRFALQDTVISAPFRGYAGAIPEAIDFPVKYVIEDISVFDKIQTNYWELPAYESWNEGSNSALLPGLLRESQSKGMLSKCRIIENSLYIGHSYEEMFYSISPYSNQVGGPYELYPFTFFSMLQEVQGDLGFEQAFATRNFFNTLVSDRLSLMENTMLLTESFDYTPWDAIYGDINYDEQFAAMSINERIEKCMNTYRGVAFQNSSKSIDFFLNNLTTFIDNGLTEIAISDLPYDIVQQEISQFLQGSNEWKTLDAMLFNLDKGDINGAFRKLLQSAKDNNIKFRAIGHSDNSVPPFNNPYKSLYYKGNIIAEAIEKLDREGQKFVVFADSSLLNSTPGTGRPMPGLVQYLKIPATVVDSDGAWQFLPDVASSRVPIEVTELENWQVLTPPQGKILGLKQFKLTAGFPTEQSRLPLLENSVSEDLREELMQKIDAIKNDVKMNSLVCMEAGSCDSVSPKVAARLKDMGLEAGMGASITWWRREGGMEFSHQMHTTASFKFAGKEFAVDASHLQFVHDQLDTTILILPVDDWALEIAQRNRAINPFVEYVSKTGNMLALFMPPLFTKPRLTRAL"}},
  "type_in_all_cases": "cell-based, rat",
  "key": {"JNK": {"tested_on": "JNK", "assay": "Phospho-JNK Western blot in cardiomyocytes", "experimental": "rPMT promotes the activation of ERK1/2, JNK and p38-MAPK cascades. Incubations were for 24 hr in the presence of the indicated concentrations of rPMT. PMA (100 nM, 5 min) and sorbitol ([…], 5 min) were included as positive controls. Cell lysates were subjected to SDS-PAGE followed by Western blotting as described in Methods below. Phosphorylated forms of ERK1/2 (A), p38 MAP kinase (B) or JNK (C) were detected by specific anti-phospho-ERK1/2, -p38 MAP kinase or -JNK antibodies, respectively. Blots were stripped and subjected to immunoblot analysis with total ERK1/2 or p38 MAP kinase to normalize for minor variations in protein loading (Panels A and B). Top: representative autoradiograms (with each lane from a single gel exposed for the same duration). Bottom: quantification of each series of experiments (n=3).\n(§1) Specific immunoreactivity for individual PKC isoforms was quantified according to methods described previously. For assays of MAPKs and AKT, cells were exposed to test agents as indicated in individual experimental protocols, washed three times with ice-cold calcium/magnesium-free Dulbecco's PBS (pH 7.1), scraped into ice-cold extraction buffer [20 mM β-glycerophosphate pH 7.5, 20 mM sodium fluoride, 2 mM EDTA, 0.2 mM sodium vanadate, 10 μg/ml aprotinin, 25 μg/ml leupeptin, 50 μg/ml PMSF, and 0.3% (v/v) β-mercaptoethanol], lysed by sonication, and centrifuged at 10,000 g for 10 min at 4° C. The supernatant was diluted in SDS-PAGE sample buffer, boiled for 5 min, and stored at −70° C. Western blot analysis was performed with antibodies that are selective for the phosphorylated (activated) forms of ERK1/2, p38-MAPK, JNK, AKT, and pan-PKC according to manufacturer's instructions. For each panel in each Figure, the results are from a single gel exposed for a uniform duration. Bands were detected by enhanced chemiluminescence and blots were quantified by laser scanning densitometry."}, "cardiomyocytes": {"tested_on": "cardiomyocytes", "assay": "Cardiomyocyte growth: sarcomeric organization and cell size", "settings": "rPMT 400 ng/ml or NE 10 μM, 48 hr, serum-free", "experimental": "rPMT mimics the effect of norepinephrine to promote cardiomyocyte hypertrophy. Cardiomyocytes were cultured in serum-free medium without or with rPMT (400 ng/ml) or norepinephrine (NE, 10 μM) for 48 hr. Cardiomyocytes were fixed, permeabilized, and stained with monoclonal anti-α-actinin sarcomeric (Panel A, magnification×100) or subjected to Northern blot analysis for measurements of steady-state ANF mRNA expression (Panel B). Effects of rPMT (black bars) and NE (gray bars) vs. vehicle (white bars) on sarcomeric organization (Panel C), cell size (Panel D), and protein synthesis (Panel E) are illustrated (n=3 for each).\nCardiomyocyte growth was assessed by measuring cell surface area by digitized image analysis. For each experimental point, 7-10 frames/dish were recorded at 40× magnification with a video camera attached to a Nikon microscope which was calibrated with a micrometer.\nCardiomyocytes were grown on slides precoated with fibronectin. After treatment, cells were fixed with cold methanol and permeabilized with 0.1% Triton X-100 and 0.2% BSA. Cells were incubated with α-actinin monoclonal antibody overnight at 4° C. followed by anti-mouse IgG-Cy3-labeled antibody for 30 min at room temperature. Fluorescence microscopy images were obtained at 100× magnification."}, "AKT": {"tested_on": "AKT", "assay": "Phospho-AKT and total AKT Western blot in cardiomyocytes", "experimental": "rPMT decreases basal AKT phosphorylation and prevents its phosphorylation by EGF. Neonatal rat cardiomyocytes were treated with rPMT (400 ng/ml) for 24 hr (Panel A), 48 hr (Panel B) or with EGF (50 ng/ml) for 5 min. Cell lysates were subjected to SDS-PAGE followed by Western blotting with antibodies that recognize the phosphorylated form or total AKT. Data are from representative gels, with similar results obtained in 3 separate experiments.\nPanel A: Cells were treated with norepinephrine (NE, 10 μM) or PMA (100 nM) for 5 min without or with GF109203 (5 μM).\nPanel B: Cells were treated with rPMT (400 ng/ml), NE (10 μM) or PMA (100 nM) for 24 hr without or with Go6983 (5 μM). […] Cell lysates were subjected to SDS-PAGE followed by Western blotting using a specific anti-phospho-AKT antibody. Data are from representative gels, with similar results obtained in 3 separate culture preparations.\nas §1"}, "PKCδ and PKCε": {"tested_on": "PKCδ and PKCε", "assay": "Immunoblot of nPKC isoform abundance in cardiomyocytes", "settings": "24 hr stimulation", "experimental": "rPMT selectively activates nPKC isoforms. Cardiomyocyte cultures were incubated in culture medium without or with NE (10 μM), rPMT (400 ng/ml) or PMA (100 nM) for 24 hr (Panels A and C) or 5 min (Panel B). Soluble extracts were prepared and separated by SDS-PAGE followed by immunodetection of total PKC isoform abundance with antibodies that are specific for the individual PKC isoforms (Panel A), or phosphorylated forms of PKC (largely PKCε) with a pan-phospho-PKC antibody (Panels B and C), as described in Methods below. GF109203 was included at 5 μM 30 min prior to stimulation as indicated.\n(§2) Cells were maintained in culture in the presence of 10% FCS for 96 hr and then switched to serum-free medium for 24 hr prior to the addition of agonists as indicated. For PKC, extracts were prepared and subjected to SDS-PAGE to resolve individual isoforms according to methods described previously (14).\n(§3) Specific immunoreactivity for individual PKC isoforms was quantified according to methods described previously. […] Bands were detected by enhanced chemiluminescence and blots were quantified by laser scanning densitometry."}, "PKC isoforms": {"tested_on": "PKC isoforms", "assay": "Immunoblot of PKC isoform partitioning and down-regulation in cardiomyocytes", "settings": "400 ng/ml, early time points 30 min-2 hr", "experimental": "rPMT selectively activates nPKC isoforms. […] Soluble extracts were prepared and separated by SDS-PAGE followed by immunodetection of total PKC isoform abundance with antibodies that are specific for the individual PKC isoforms (Panel A), or phosphorylated forms of PKC (largely PKCε) with a pan-phospho-PKC antibody (Panels B and C), as described in Methods below. GF109203 was included at 5 μM 30 min prior to stimulation as indicated.\nas §2, §3"}},
  "data": [
    {"molecule": "B1", "values": [
      {"measurement": "expression of total JNK protein", "setting": "JNK", "value": "does not significantly alter"},
      {"measurement": "signaling through the JNK cascade (phosphorylation of terminal kinase)", "setting": "JNK; 24 hr, indicated concentrations", "value": "dose-dependent increases"},
      {"measurement": "time at which JNK activation is detectable", "setting": "JNK; increased progressively for 24 hr", "value": 1, "unit": "h"},
      {"measurement": "magnitude of JNK activation", "setting": "JNK; rPMT 24 hr, sorbitol 5 min positive control", "value": "more modest"},
      {"measurement": "cell size (cellular enlargement)", "setting": "cardiomyocytes", "value": "induce marked cellular enlargement"},
      {"measurement": "myofibrillar (sarcomeric) organization", "setting": "cardiomyocytes", "value": "promote myofibrillar organization"},
      {"measurement": "total AKT immunoreactivity, treated vs control cultures", "setting": "AKT", "value": "similar"},
      {"measurement": "basal AKT phosphorylation after 24 hr treatment", "setting": "AKT; 24 hr, relative to control cultures", "value": "reduced basal AKT phosphorylation"},
      {"measurement": "effect on AKT activation by EGF", "setting": "AKT; rPMT-treated cultures", "value": "blunted"},
      {"measurement": "abundance of PKC-δ and PKC-ε in the particulate fraction", "setting": "PKCδ and PKCε", "value": "remains relatively preserved"},
      {"measurement": "abundance of PKCδ and PKCε in the soluble fraction", "setting": "PKCδ and PKCε", "value": "significantly reduce"},
      {"measurement": "partitioning of PKC isoforms between soluble and particulate fractions", "setting": "PKC isoforms", "value": "does not detectably alter"}
    ]}
  ]
}
